Paper PMC4951691

Columns and labels:
[1] = biological target: Cryptococcus neoformans Golgi Reassembly and Stacking Protein (CnGRASP) (Cryptococcus neoformans); test: dynamic light scattering; Nano-ZS, 20 °C, 25 mM Hepes/NaOH, 150 mM NaCl, 1 mM beta-mercaptoethanol, 10% glycerol, pH 7.4; mass worked out from the Rh of 3.9 nm
[2] = biological target: Cryptococcus neoformans Golgi Reassembly and Stacking Protein (CnGRASP) (Cryptococcus neoformans); test: SEC; Superdex 200 (HR 10/30), Akta purifier; hydrodynamic radius from the partition coefficient against standard proteins (calibration kit LMW/HMW); CHAPS left out of the protein preparation
[3] = biological target: Cryptococcus neoformans Golgi Reassembly and Stacking Protein (CnGRASP) (Cryptococcus neoformans); test: SEC + other: zone sedimentation in a sucrose gradient; Siegel and Monte model: Rh from SEC combined with the sedimentation coefficient (about 4.2 S) from a 10 to 35% sucrose gradient in 25 mM Hepes/NaOH, 150 mM NaCl, pH 7.4; CnGRASP less than 1 mg/mL; 100,000 g for 4 h at 4 °C

Measured: stoichiometry N

Cryptococcus neoformans Golgi Reassembly and Stacking Protein (CnGRASP) (natural protein)
2: [1] | [2] | [3]
